Tests used:
crystal structure = molecular target: the molecule itself; assay: crystal structure
SEC-MALS = molecular target: the molecule itself; assay: SEC-MALS

B1: mouse ZP2 NTR ΔN1 construct mZP2-N2N3 (domain or fragment, UniProt P20239 135-360, looked up)
chain: PAIQAETHEISEIVVCRRDLISFSFPQLFSRLADENQNVSEMGWIVKIGNGTRAHILPLKDAIVQGFNLLIDSQKVTLHVPANATGIVHYVQESSYLYTVQLELLFSTTGQKIVFSSHAICAPDLSVACNATHMTLTIPEFPGKLESVDFGQWSIPEDQWHANGIDKEATNGLRLNFRKSLLKTKPSEKCPFYQFYLSSLKLTFYFQGNMLSTVIDPECHCESPVS
stoichiometry N (crystal structure): 2

B2: hOvst-cleaved hZP2-N1N2N3 (domain or fragment)
chain 1: not shown
chain 2: not shown
stoichiometry N (SEC-MALS): 2

— publication doi:10.1101/2023.06.21.544075 (bioRxiv, 2023)
